Experimental data published in article PMC6520340, “Development of a ribonuclease containing a G4-specific binding motif for programmable RNA cleavage”.

Molecular target: RNase HI catalytic domain (wild-type) (Bacillus halodurans, UniProt Q9KEI9 59-196)
Assay: EMSA; 10 uM DNA, 50 uM protein; 100 mM K+; Native 10% PAGE in 1X TBE, 20 mM potassium phosphate, 100 mM KCl, pH 7.0; UV shadowing; temperature not stated
Conditions: protein: recombinant

Chain of RNase HI catalytic domain (wild-type) (Q9KEI9 59-196): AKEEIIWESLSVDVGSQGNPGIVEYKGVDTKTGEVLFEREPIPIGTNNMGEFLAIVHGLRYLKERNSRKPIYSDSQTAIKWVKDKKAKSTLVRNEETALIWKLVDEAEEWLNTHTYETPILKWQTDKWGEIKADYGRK

B1: B1 (structured_DNA)
DNA: TTGGGTGGGTGGGTGGGTTCAACGACGACGGCATCATC
**Q.** Does B1 bind (parallel G4 with 3' single-stranded tail)?
**A.** no binding

B2: B0 (ssDNA)
DNA: TTGACTAAGTGCCTTAGTTCAACGACGACGGCATCATC
**Q.** Does B2 bind (single strand)?
**A.** no binding
